Laboratory results reported in the supplement of paper PMC9732359.
± gives the uncertainty stated by the source.

Assay: protein stability index of a GFP-peptide fusion (yeast GPS) (PSI 1-4); higher = more stable; sorted into four equal gates, so the index is relative within each strain
Summary of the method: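 Peptides tiling yeast proteins in 17-residue segments were fused downstream of GFP, with Cherry expressed from the same plasmid. As a pooled library in yeast, mid-log cultures grown in leucine-free medium were sorted into four equal gates by GFP/Cherry fluorescence ratio. Gate plasmids were PCR-amplified and Illumina-sequenced, and barcodes linked reads to strains. Each peptide received a protein stability index equal to the sum of each gate's read frequency times its gate number.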

| Sequence | protein stability index (doa10∆) | protein stability index (pdr5∆) | protein stability index (san1∆) | protein stability index (ubr1∆) |
| --- | --- | --- | --- | --- |
| DPNEVEIKKLLATNSLV [DIS3] | 2.19 ± 0.049 | 1.82 ± 0.048 | 2.35 ± 0.057 | 2.29 ± 0.046 |
| NIVQVFKKAAPSPISHV [RPB2] | 2.2 ± 0.11 | 2.33 ± 0.071 | 2.16 ± 0.075 | 2.09 ± 0.043 |
| LDKNLIKLVKQNDELKF [RPC34] | 1.16 ± 0.077 | 1.21 ± 0.073 | 1.43 ± 0.18 | 2.18 ± 0.1 |
| IDMHLIYGVEWLIEGKL [YDL116W/NUP84] | 2.64 ± 0.17 | 2.58 ± 0.093 |  | 2.33 ± 0.099 |
| HLMSWSKTGIIAYSDSQ [SIN4] | 1.63 ± 0.11 | 1.59 ± 0.15 | 1.32 ± 0.12 | 2.2 ± 0.2 |
| SGPFKVNGVPLRRVNAR [RPL6A] | 2.67 ± 0.25 | 2.84 ± 0.2 | 2.96 ± 0.24 | 2.77 ± 0.075 |
| IQVAAFIYGMSAKDHPK [PRP8] | 3.24 ± 0.091 | 2.98 ± 0.12 | 3.19 ± 0.082 | 3.17 ± 0.12 |
| GQKLLAIKYGYEDSGST [SRB4] | 2.83 ± 0.11 | 2.91 ± 0.098 | 2.53 ± 0.1 | 3.25 ± 0.11 |
| RYSNLVCKKADVDLHKR [RPS18A] | 3.05 ± 0.092 | 3.38 ± 0.096 | 3.58 ± 0.13 | 2.95 ± 0.083 |
| EWKSNHKKKRSNAAGAD [SRB8] | 1.33 ± 0.13 | 1.72 ± 0.2 | 1.5 ± 0.17 | 1.83 ± 0.054 |
| LEIDNKDSVTECSKDMK [SIR4] | 3.46 ± 0.14 | 3.53 ± 0.083 | 3.4 ± 0.12 | 3.63 ± 0.066 |
| ALVAGIERYPSKVTKKH [RPL27B] | 1.86 ± 0.082 | 1.99 ± 0.063 | 1.47 ± 0.12 | 1.96 ± 0.2 |
| PTFSTHAQLLLSDRITG [PRP8] | 1.7 ± 0.033 | 1.87 ± 0.036 | 1.57 ± 0.051 | 1.95 ± 0.031 |
| VVDANGCVNSLISGPRN [YMR129W/POM152] | 2.86 ± 0.15 | 2.69 ± 0.12 | 2.97 ± 0.13 | 2.66 ± 0.081 |
| PREDKENNRLLFECRTC [RPB9] | 3.29 ± 0.14 | 3.17 ± 0.13 | 3.02 ± 0.17 | 3.29 ± 0.16 |
| LADSLDRCVDPEDPYFN [DIS3] | 3.05 ± 0.095 | 2.64 ± 0.079 | 3.35 ± 0.076 | 3.4 ± 0.059 |
| FPRNGKAPEAEQVLSAA [RPL13A] | 3.14 ± 0.098 | 2.76 ± 0.093 | 3.13 ± 0.1 | 2.77 ± 0.05 |
| GDNEYITLRTSGELLQG [MCD1] | 3.14 ± 0.13 | 3.11 ± 0.16 | 3.16 ± 0.097 | 3.36 ± 0.096 |
| KKMGVPYAIIKGKARLG [RPL8B] | 2.15 ± 0.15 | 2.12 ± 0.15 | 2.11 ± 0.17 | 3.41 ± 0.28 |
| TTAVDALQKGLKDLMDL [RPC19] | 3.58 ± 0.23 | 2.79 ± 0.26 | 2.9 ± 0.12 | 3.02 ± 0.13 |
| SFDEWFNTPFANTGGQD [SNF2] | 2.8 ± 0.099 | 2.99 ± 0.12 | 3.41 ± 0.095 | 3.15 ± 0.15 |
| VENDTFIERNFTPQEIE [FAS2] | 2.87 ± 0.083 | 2.32 ± 0.062 | 2.15 ± 0.068 | 3.18 ± 0.05 |
| QAELLQLAVKIINKVLD [YJL039C/NUP192] | 2.33 ± 0.25 | 3.09 ± 0.091 | 2.74 ± 0.13 |  |
| IRGKILTGTVVSTKMHR [RPS11A] | 3 ± 0.066 | 2.99 ± 0.051 | 2.79 ± 0.052 | 2.9 ± 0.039 |
| YRATSLDPSLRAPIYHS [YML031W/NDC1] | 2.4 ± 0.068 | 2.68 ± 0.055 | 2.44 ± 0.058 | 2.44 ± 0.037 |
| FNQEGDYNFKYGIPLEF [PRP8] | 3.14 ± 0.084 | 3.11 ± 0.077 | 1.92 ± 0.076 | 3.37 ± 0.077 |
| EQRHLKRELKRAQEEVK [RPT3] | 3.13 ± 0.077 | 3.37 ± 0.12 | 2.95 ± 0.089 | 3.17 ± 0.078 |

| Sequence | protein stability index (doa10∆) | protein stability index (pdr5∆) | protein stability index (san1∆) | protein stability index (ubr1∆) |
| --- | --- | --- | --- | --- |
| MASLPHPKIVKKHTKKF [RPL32] | 2.41 ± 0.088 | 2.97 ± 0.093 | 2.22 ± 0.088 | 2.83 ± 0.075 |
| CHLYSQRMHAIHEIDER [NNF1] | 1.24 ± 0.082 | 1.64 ± 0.065 | 1.8 ± 0.1 | 1.63 ± 0.073 |
| RYVAGVQQRYTQSGGVR [PRE6] | 2.84 ± 0.23 |  |  |  |
| DFPHLTPKLQTQLSYLI [YCS4] | 2.82 ± 0.043 | 2.88 ± 0.045 | 2.79 ± 0.044 | 2.67 ± 0.038 |
| SRGIVIGSGAMSPLECR [RPP1] | 1.69 ± 0.031 | 2.34 ± 0.048 | 2.12 ± 0.069 | 2.44 ± 0.036 |
| YGRKSFRNNKNDNYSSD [REC8] | 3.28 ± 0.096 | 3.22 ± 0.068 | 3.32 ± 0.05 | 3.14 ± 0.059 |
| RITKSNEKSQAEQEKAK [LRP1] | 1.9 ± 0.075 | 1.33 ± 0.067 | 1.48 ± 0.18 | 1.25 ± 0.14 |
| YSIFLENENILIKAKNF [SMC1] | 1.21 ± 0.092 | 1.22 ± 0.11 |  | 1.14 ± 0.1 |
| MVALISKKRKLVADGVF [RPS3] |  | 1.85 ± 0.18 | 1.53 ± 0.13 |  |
| KDLETLYNKIWTEASSS [ECM29] | 3.24 ± 0.2 | 2.84 ± 0.14 | 2.71 ± 0.091 | 2.51 ± 0.083 |
| ITFHPKIRARSITLQGD [SMC2] | 2.48 ± 0.049 | 2.56 ± 0.045 | 2.69 ± 0.051 | 2.48 ± 0.043 |
| VNVLLQSYFSQLKFEGF [BRR2] | 1.22 ± 0.048 | 1.51 ± 0.046 | 1.28 ± 0.074 | 1.48 ± 0.033 |
| MISIIKLVTNVVDPKTS [YML103C/NUP188] | 1.84 ± 0.047 | 1.81 ± 0.045 | 2.04 ± 0.093 | 1.67 ± 0.035 |
| ANSSITPAFGSNNTGNT [YJL041W/NSP1] | 2.65 ± 0.068 | 2.86 ± 0.049 | 2.72 ± 0.048 | 2.87 ± 0.031 |
| LISSSGPIKTPVGACAT [FAS2] | 1.76 ± 0.053 | 1.76 ± 0.11 | 1.31 ± 0.098 | 2.17 ± 0.071 |
| HGMDFTTDKLRSMVRKW [RPS1A] | 2.42 ± 0.1 | 2.55 ± 0.1 | 2.48 ± 0.19 | 2.9 ± 0.064 |
| AAGAGAAAGAAMIDAGA [FAS2] | 2.84 ± 0.15 | 2.98 ± 0.12 |  | 2.99 ± 0.12 |
| IGQIIFSVRTKDSNKDV [RPL10] | 2.18 ± 0.05 | 2.49 ± 0.048 | 2.21 ± 0.065 | 2.79 ± 0.051 |
| NELERNRKIYQFTLYDR [SMC3] | 1.5 ± 0.23 | 2.45 ± 0.1 | 2.31 ± 0.14 | 2.88 ± 0.1 |
| KELAELKVQKLSRPSLP [RPL35A] | 2.56 ± 0.045 | 2.92 ± 0.052 | 2.5 ± 0.061 | 2.74 ± 0.048 |
| VENSVLIEKVDDTAANN [YIL149C/MLP2] | 2.83 ± 0.15 | 2.82 ± 0.15 | 2.68 ± 0.14 | 2.79 ± 0.088 |
| SKNLGEINTALNTLLVT [SWI1] | 1.23 ± 0.077 | 1.79 ± 0.054 | 1.57 ± 0.11 | 1.46 ± 0.066 |
| GLNDLVEQYKFRETTHS [BRR2] | 3.16 ± 0.091 | 3.03 ± 0.074 | 2.84 ± 0.082 | 3.1 ± 0.061 |
| KKEKLDSGEVDADGDID [DPB4] | 3.05 ± 0.15 | 3.4 ± 0.17 | 3.29 ± 0.12 | 3.36 ± 0.11 |
| ALLGDKIYNFGELLHHP [RPN9] |  |  | 2.36 ± 0.29 |  |
| LMEFLCVVSTDSTNLSD [ECM29] | 1.92 ± 0.059 | 1.65 ± 0.056 | 1.84 ± 0.094 | 1.72 ± 0.063 |
